Data reported in the DeepSol protein solubility set.

Assay: soluble on expression in E. coli; label from the status in PepcDB or PDB records

Row | Sequence | soluble on expression in E. coli
1 | MSLKKITGDDVLIPLETPESMHKEYIQNYLNLTRNTGNLMLFAGDQKIEHLNEDFYGKDISKDDADPEHLFKIAENSKIGGFAVQFGLLSRYGRDHKDINYIVKLNSKTNLVDTNQKDPLSRALLDINDILEFKKNSGINIVGVGYTIYLGSEYESEMLSEASKIIYEAHKGGLVVILWIYPRGKAVKDEKDSELISGATGVAACLGADFVKVNYPKSENPAESFKEAVMAAGRTKVVCAGGSSTDIESFLKQLYEQIHISGASGNATGRNIHQKSLSDAVSMCNAIYAITIDGKTVSEALNIYNERKSEGHHHHHH | soluble
2 | MSLKLHHLNDSRSFRILWLLEEIGQPYEIIRYQRDKETHLAPETLKDIHPLGKSPVIELDGKIIAESGSITEVLIKEFAPHLAPNEKSPEYIDYLQWIHFSESSAMLPLLLKIFNEFETRSGTDLKFLKNYAEIEFNKVFSYLNNHLNNKKFLVEDRLTGADFMLGFVVKGALNLLKSSGAFPHIESYITNIENQISYKRALDIDANEGHHHHHH | soluble
3 | MSLKLISNDLRDGDKLPHRHVFNGMGYDGDNISPHLAWDDVPAGTKSFVVTCYDPDAPTGSGWWHWVVVNLPADTRVLPQGFGSGLVAMPDGVLQTRTDFGKTGYDGAAPPKGETHRYIFTVHALDIERIDVDEGASGAMVGFNVHFHSLASASITAMFSEGGSHHHHHH | soluble
4 | MSLKLTSYTKTMQGRRKKQEDRYLVITDLTKYIDSNDYKTLYFYKKNPLYFYSIFDGHRGIKACEYCMSHIIKNIIYYFYNQGSAGAGTDEQIMEYIKLAFLKTDEQFLKVSKFPNHGCTIISLIIFRNKMFVANLGDCRAIGVVNISNTLKTEVLSNDHKPNDPKEKERIKKMGGDVICLQNVYRVKANARKNNKDKPSLLERLSMKEEVYLAVSRAIGDKDFKFNNVISATPDVICKEDNLYYSAHEVNYHYVVMACDGVWDTMSNKDIVKILQTYNNDPDKACSEIIKTAYAYGSQVHEGHHHHHH | not soluble
5 | MSLKLWENGTFYQMTAEGEQVSAVLTKNGQIHAVGEVADLKKQYATEIDETIDLEGKVVFPGFVDAHIHLLWYGQALERLNLNQTTTKKEALALILERTKQLASEEWLFVEGYDENKWSDEQTLISLVDLDGVSTTNPILVRRIDYHSVSINSALKAHIENFSENGFDGGGEIVRDKAGNFTGILRDNATTLAIDAFPAATPAELNAWLKIAITDLWSKGITGAHSEDLHYFTGFESTFAAFRNTVGANRLPFRAHLLIHHAELANFSTSKESFMSGDKFLELGAMKIFYDGTVGSRTALMSAGYADNPNEKGLQIHSDEAFEDLVQSARKAGLPVAIHILGDQAFANVIRTLRANPPKEGQYDRLIHTPWLTKELIAEAEGLPILFDVQPQFMASDLPWAIDVLGENHPPLAFAWNSLLRAGFPLAGGSDAPIEVPNPFWGIHAAVTRTANADLNGVKYWPEESLTVYEAIELYTKGAAFASYKTTSRGQIAPGFVADFTILAEDPFLIKPANLRHLEVMMTVVNEQVVYKKEGHHHHHH | soluble
6 | MSLKMEDIAISITGYSYSNIKETIPDGVDKEEIAAVYEEIIDEYLQKGIPREIPALINVSGVPGAGKSTFCKKLLAMPENSSAIYIGFDAIMENERLPYIREEVNHAEEAFKRWELSARIAGYELLKRAIENKYLIIFDHSSALSQHIDLFNLLLSEGYEVHFNFIFIPEEEARRRAKNRKRYIPPYYIEERSKTLQYLLPEYKRICTTFKQIEPMRTRLIIARHGNTFRPEETPTRVGAKTDLPLVEEFKGRSIGRYLKEHDMIPDVIYAAPLLRTMQTARLAVQTIGLDSDISPLNAFVEIDYGVDENKTEEEVRLRLGNGNIEKGKKIIEDWDKNAVVPDGWKVDPDQIIHTWLDFAEKTVIPHQTTLLVTSNGIIRFAPYLTGDFEKFAQEHKIKVAPGGLCIFDKNDGDSFWTCSAWNVKPYELYADSEGHHHHHH | soluble
7 | MSLKMIISYGMPKSASTFAWLVIKKICLNSRLDDVVDLSTAAKGNDSVEDYIDGSVKVNAAQITREVGERCCVIKTHSSAVHFRTLVGGSAFFLPFAQHRDPRDVALSLMDHARRSRELGIADYADCLSIEGCLPVIDSSIENFIEWVDQYSAIPISYDYLCFNGLACLSFIASALDCDVDCAAILKGFERKESIAQFNKGIRHRWVDEMPQAQARMLFRRYEEYYDRFGAEGHHHHHH | not soluble
8 | MSLKNLFNKYNDMKGVSSVYISKAMMELNPNLFMKDLYIGKVAEHLNSVQVLSTHDNKVREEMAKDIRSLVQSSKYELLMKQKSTVSGSEVYVNRKGSKVKELIMVMNGASSLKFVYMEGDMTTDDIKKLMLYQSTSQNFIISGDLFYANNKPVTYFKKGNSDNQKDMAELSGTYNLNSIDTNYKEELSTLNDKLKRIDQGLKNMNIKEGHHHHHH | soluble
9 | MSLKNPCNAEFQNFCIHGECKYIEHLEAVTCKCQQEYFGERCGEKSMKTHSMIDSSEGHHHHHH | not soluble
10 | MSLKPCFGYIRVSTERQGDGASLEAQKDAITGFASQNNLEIVRWFEERETASKTGRPIFGEMMNALVSGAAEGLILHKVDRTARNFSDWSRLHEVAKLGIDVYFAADSLDFGTRGGQLLADIQMALAADYSRNLSQEVKKGIYGRIKNGVYPFRAPLGYLDTGGGNVKAIDPIKAPLVSQVFELYCSGDYSITSLTEEMQRRGLKGVGERPVVRRNIESILRNPFYCGKMLVRGKLYDGAHEPLISTAQYRRVAAIKAQRFVKKSTKHELLFRGLFTCGACGQVLTGERQKAHVYYRCHTPRCGRGAIREDRLEETLREKLARLEISPEDQVTLESDIRAWLNKDGVKDIEKSLRLRISDATARLDRLTDLLVDGAIDKPAYELRKQNVEFEKQQLREELDALERSRAEEKDLKALLALAADLSSLYDAAPPPKKRELIRNCLVAPCVMDGQLVSHPADWLVSLRKSPKTDEKSHSAPQAILEGVRVMHAVVDVEGHHHHHH | soluble
11 | MSLKQLVVKIETDNGIIGWGEAQSPVSPNTTATIIKDIVEPLTIGKDIYDVESIWHNNYSAKRERGHYTGFYIDAICGVDIAIWDAIGKSLKMPTCKAMGGAHRKSVALYNGIGGTEPEEVADQAEWSVSKGYKFVKMHLKETLEKDIEIARKVRERVGDSIGIMIDVHMGFDTFNVTKLGKELEKLNLLWLESPSDPTDIPGLCEISRSLDIPIANGEWTRTKYEMREIFEKRAYDISMPDIARTGLTGGKQIASIAQLYNIPIAPHVGGGGIVSVASTLQFSLNTPNFLIMEHSEQGHAVKAMILSESFDAENGQYSLPNKPGLGIDVDENKLEKYKINPSEGHHHHHH | soluble
12 | MSLKQTNPFVYSNDNKRYHTWNYCLREEFGQKTYKVALDGGFDCPNRDGTVAHGGCTFCSAAGSGDFAGNRALDLKIQFQQVRDKMQTKWKDGKCIAYFQAFTNTHAPVAELREKFETVLNEPGVVGLSIATRPDCLPDDVVEYLAELNERTYLWLELGLQSAHDETGRLINRAHDYDCYVEGVRKLQKHNIRICTHIINGLPKETPEMMMETTRKVVESGVDGIKIHLLHLLKGTPMVEDYKKGDLEFLTRDGYVNLVADQLEILPPEMVIHRITGDGGVDDLIGPVWSLNKFEVLNAIDAELVRRDSWQGKLYQPVEVNAKEGHHHHHH | soluble
13 | MSLKRITMQDIADRLNISKNSVSQALRGKEGVSKETRELVKRVAKEMGYEYPASRAKSRGKPPRQIALIASDRTFSLKFFGEIYLSIEQEALSHGMKLHIQSVNKEQKERLLLPSFIEEKQVDGVIVLSHISTEYIQQIVATGIPTVLVDHHHPNIPADAVLTNNRFGAYVAVQHLLELNHTDIAFVGDVNYSPSYQERYEGYLLALKDYGVKPNEEWMFCQAQEDETVIAGYIRELKRQPTAWFCVNDGLGFFVSTGLQQYGLKVPDDVSVCSFDNGQLSQIATPKITTVDIDLKRYGKRAVELLRWRWDNPNEPFQEVLLSTKLIKRESTAAKPTREGHHHHHH | soluble
14 | MSLKRIYGSNRYETSIMVSKEGWDKSSYAVISRGDNFADALCAVPLSKKYNAPILLIGKDKLNNNLKSELKRLNVSKVFITGGEGVISKTLEGEIKNIPNIKEVKRLGGKDRYETSKLIAESVGCNGEIVVTAGTNSSDTLSISPIAANKNMPILLTAKDKNLMQKYLKSNKVNKTFVIGGEKCVSKEIENILPNVERIYGENRYETNEKIIKRFSNSLDFKNVYIALAQSQRGDEFADALSSAALAAQKNSPIILIYKDIYKNTKDILNTKLSNESIVSILGGEKLISDNILDNLAISKNEGHHHHHH | not soluble
15 | MSLKSLKAKFRKSDTNEWNKNDDRLLQAVENGDAEKVASLLGKKGASATKHDSEGKTAFHLAAAKGHVECLRVMITHGVDVTAQDTTGHSALHLAAKNSHHECIRRLLQSKCPAESVDSSGKTALHYAAAQGCLQAVQILCEHKSPINLKDLDGNIPLLLAVQNGHSEICHFLLDHGADVNSRNKSGRTALMLACEIGSSNAVEALIKKGADLNLVDSLGYNALHYSKLSENAGIQSLLMSKISQDADLKTEGHHHHHH | soluble
16 | MSLKSTVLLIDDDQDVLDSYLHLMSIAGLTAKAVIDPTQAMSHIQPDWNGVVLLDMYMPQLHGMELLKQIKAVDDKIPVIVITGHGDIPMAVEAVKMGACDFLEKPINPPQLLTLIKQHLELRRSFIEQKLLLSRSVKRELVGKSAQMEQIRSHVAQYALLNRHVVIVGESGCGRHTIAYLIHQLTTNNGHLPWVELVASAKTEWSTVEPKVQESAGGTLLIDHIELLSEEVQRNVVQSLLNQERLNRPRTRVIAVIDQPPEQLIAQNQLLPELYYLLNQGQIDVPLLRQRPDDIAALFHYFLKQSCYKLGKPMPNVEPHYLALLRAHQWPGNVRELRNVAELYAIGIVKLAGKERLYNQEEMLSPLDELVDDYEKQVIEDALFLFSGRVADAANYLQVPRKKLYLRMKKHGLEKDAFKAREGHHHHHH | soluble
17 | MSLKSYRPIELAKMFNLHSNTIRFYESIGYISKASRKPNGYREFTDKHILQLTICRHILGYRYTNRHIRDTGKLIIICSAESKLIEGKQYAQDYIKIIQNEIEIAEKTAQLLHKWAELKRDTDNSDSIEKFYTRNEVACLLGVTSEAVRNWERNDLIKSDKRGYRNAVLFNNIDLDRIRIIYMLRQTGYSMSAIHRCLMVYDKGQTELVVAALNKTDERELLSVGDCWLSELKKLESAAEEIPLIFDKLKESEGHHHHHH | soluble
18 | MSLKTNKLINKSFRFKQFSIEEGTCGMPISTDGVLLGSWAFSLSPTTILDIGCGTGLLSLMCAQRFPHAHITALDIEQTAYLAAEHNRQQSPWAERIECQHADILHWQPSKRFAAIICNPPYFNSGETAQHQVRATARHTISLQHQALIERLPQLLEPDGVASFILPKAEGEDFIALARQAGLFVGRYCQVQPTTDKPVHRLLFELHLSPCLPVETRLVIREQQGYSEAFCQLTRDFYLKMSEGHHHHHH | soluble
19 | MSLKVDSFSLPLSSPLATARETISQRSGFVVRYDHRGETGVGEATPLPGWTESLDDCQRGLNDAATVAAGGGHTDVLLSLDAASVPAARHGFATALLDADARADGVPLYQWFDSERHCNRVPVNATVGDGSPAETADAVERAVEAGYDCCKMKVGKRTVDEDVARVRTVRERVGDDVTLRADANGAWSRDRAQEAFDRLAPLDVAYVEQPLPADDLTGHAGLRGNGVGVALDESLVDRRVDSVLDADAADVLILKPMVLGGPGNAHTLALRAREQGVEPVVTTTIDAVVARLAALHVAAAIPDVAACGLATGDRLAADLAPDPTTVTDGAMSVPQSTGLGIDPTEVGTDAEGHHHHHH | soluble
20 | MSLKVTFEQLKAAFNRVLISRGVDSETADACAEMFARTTESGVYSHGVNRFPRFIQQLENGDIIPDAQPKRITSLGAIEQWDAQRSIGNLTAKKMMDRAIELAADHGIGLVALRNANHWMRGGSYGWQAAEKGYIGICWTNSIAVMPPWGAKECRIGTNPLIVAIPSTPITMVDMSMSMFSYGMLEVNRLAGRQLPVDGGFDDEGNLTKEPGVIEKNRRILPMGYWKGSGMSIVLDMIATLLSDGASVAEVTQDNSDEYGISQIFIAIEVDKLIDGPTRDAKLQRIMDYVTSAERADENQAIRLPGHEFTTLLAENRRNGITVDDSVWAKIQALEGHHHHHH | soluble
